Experimental data as given in paper PMC3959803 (Experimental biology and medicine (Maywood, N.J.), 2009).

Target: T1, His-p55 (recombinant His-tagged erythrocyte p55/MPP1) (human, UniProt Q00013-1 1-466)
T1 sequence (looked up): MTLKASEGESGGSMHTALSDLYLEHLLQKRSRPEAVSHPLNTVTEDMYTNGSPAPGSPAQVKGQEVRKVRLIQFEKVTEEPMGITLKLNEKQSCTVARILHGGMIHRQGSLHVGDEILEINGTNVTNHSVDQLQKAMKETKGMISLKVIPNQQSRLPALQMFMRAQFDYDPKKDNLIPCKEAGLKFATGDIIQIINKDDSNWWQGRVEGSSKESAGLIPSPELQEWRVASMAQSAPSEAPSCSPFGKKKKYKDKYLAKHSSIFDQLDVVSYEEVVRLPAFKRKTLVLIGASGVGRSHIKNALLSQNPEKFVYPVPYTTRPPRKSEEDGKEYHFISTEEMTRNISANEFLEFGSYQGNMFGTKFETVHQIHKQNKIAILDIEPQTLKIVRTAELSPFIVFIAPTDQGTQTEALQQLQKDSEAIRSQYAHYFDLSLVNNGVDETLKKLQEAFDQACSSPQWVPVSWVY
Test: SPR

- Kd: 3.7 nM
B1: MBP-NF2-N (merlin N-terminal half, aa 1-311, including the FERM domain) (domain or fragment, human, UniProt P35240 1-311, looked up)
chain: MAGAIASRMSFSSLKRKQPKTFTVRIVTMDAEMEFNCEMKWKGKDLFDLVCRTLGLRETWFFGLQYTIKDTVAWLKMDKKVLDHDVSKEEPVTFHFLAKFYPENAEEELVQEITQHLFFLQVKKQILDEKIYCPPEASVLLASYAVQAKYGDYDPSVHKRGFLAQEELLPKRVINLYQMTPEMWEERITAWYAEHRGRARDEAEMEYLKIAQDLEMYGVNYFAIRNKKGTELLLGVDALGLHIYDPENRLTPKISFPWNEIRNISYSDKEFTIKPLDKKIDVFKFNSSKLRVNKLILQLCIGNHDLFMRRR
